Read-outs that look alike come from different tables or passages of the source. No end group written: not given here.
Tests used:
Mas receptor = molecular target: T1, Mas receptor (Homo sapiens, UniProt P04201); assay: Calcium flux in Mas-transfected CHO-K1 cells; assay type: cell-based; details: for ability to induce calcium flux, relative potency (P61 family): dose response, Mas-transfected cells; for ability to induce calcium flux, relative potency (P33 family): 0.1, 1, 10, 100, 1000 and 10000 nM
T1 construct: expressed in transfected cells; host or cells: CHO-K1 (ATCC-CCL-61), transient co-transfection
T1 sequence (P04201 1-325): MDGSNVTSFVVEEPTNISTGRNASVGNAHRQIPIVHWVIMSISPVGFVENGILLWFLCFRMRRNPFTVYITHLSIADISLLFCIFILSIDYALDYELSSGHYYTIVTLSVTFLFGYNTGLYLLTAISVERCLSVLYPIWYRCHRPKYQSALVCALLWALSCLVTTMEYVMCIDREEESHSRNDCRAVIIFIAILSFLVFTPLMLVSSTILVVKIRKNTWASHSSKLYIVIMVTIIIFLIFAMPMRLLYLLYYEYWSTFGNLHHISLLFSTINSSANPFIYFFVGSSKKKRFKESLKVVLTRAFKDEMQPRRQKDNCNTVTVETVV
Description: (§1) The assay was carried out in CHO cells were transiently transfected with the GPCR of choice, by utilizing the promiscuous Gα16 to divert signaling to the Gq pathway, thus enabling readout of GPCR activation by testing for Calcium flux as described by Liu et al 2003 (Biomol Screen 8, 39-49).
(§2) All the peptides thus obtained were tested for their ability to change calcium flux in CHO-K1 cells (ATCC-CCL-61) transiently co-transfected with an expression vector containing the GPCR of choice and expression vector containing the Gα16 encoding cDNA. Expression constructs containing cDNA clones for MrgX1, MrgX2, Mas or FPRL1 were commercially obtained in one of the following expression vectors: pcDNA3.1, pCMV6, or MO2.
(§3) Transient transfections were performed using CHO-K1 cells as host cells. Cells (12 million) were plated into T75 flasks on the day preceding transfection. Cells were transfected with the appropriate GPCR expression vector and with a vector expressing Gα16 using a lipid-based reagent, MTI, according to the manufacturer's recommendation. Cells were transfected for 5 hours, then re-plated into 96-well dishes (60,000 cells per well) and grown overnight.
On the day of the experiment, cells were loaded with Fluo-4-NW (Invitrogen) according to the manufacturer's recommendation. Plates were loaded into a FlexStation™ (Molecular Devices) plate reader and fluorescence was monitored. Seventeen seconds following initiation of reading, cells were stimulated with the indicated agonist/compound at final concentration of 1 μM. Each 96 well plate contained cells transfected with one GPCR expression vector and each of the examined peptides was tested in triplicate.
(§4) We defined a hit as a peptide which elicited a clear and distinct increase in intracellular calcium that is clearly visible and statistically significant upon examination of the calcium trace for at least two repeats. The criterion for statistical significance was a p-value lower than 0.001 in a t-test comparing the levels of calcium before and after peptide addition.
Based on dose response experiments, EC50 best fit values were calculated by non-linear regression of sigmoidal dose-response curves, using Prism version 4 (GraphPad Software Inc., San Diego, Calif.). The formulae for the sigmoidal dose-response curves was defined as Y=Bottom+(Top−Bottom)/(1+10^(Log EC50−X)*HillSlope))
The ability of Peptides to change calcium flux was examined in CHO-K1 cells co-transfected with Mas receptor and Gα16.
The P33 monomer and dimer, as well as other P33 derivative peptides were compared for their ability to induce calcium flux in the Mas-transfected cells at 0.1, 1, 10, 100, 1000 and 10000 nM.

FPRL1 = molecular target: T2, FPRL1 (Homo sapiens, UniProt P25090); assay: Calcium flux in FPRL1-transfected CHO-K1 cells; assay type: cell-based; design: expressed in transfected cells; host or cells: CHO-K1 (ATCC-CCL-61), transient co-transfection; details: for ability to induce calcium flux (P33 family): 0.1, 1, 10, 100, 1000, 10000 nM; for calcium flux (P58 family): dose response, FPRL1 transfected CHO cells
T2 sequence (P25090 1-351): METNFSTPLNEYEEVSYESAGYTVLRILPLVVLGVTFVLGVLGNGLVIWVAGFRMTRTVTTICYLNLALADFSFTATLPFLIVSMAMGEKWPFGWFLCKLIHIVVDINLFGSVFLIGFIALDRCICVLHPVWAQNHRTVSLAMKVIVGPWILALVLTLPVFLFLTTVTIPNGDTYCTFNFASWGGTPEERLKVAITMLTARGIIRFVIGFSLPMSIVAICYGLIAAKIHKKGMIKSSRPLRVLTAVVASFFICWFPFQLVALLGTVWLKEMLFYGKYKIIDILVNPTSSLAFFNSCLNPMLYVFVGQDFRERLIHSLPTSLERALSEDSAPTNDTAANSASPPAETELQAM
Description: as §1, §2, §3
On the day of the experiment, cells were loaded with Fluo-4-NW (Invitrogen) according to the manufacturer's recommendation. Plates were loaded into a FlexStation™ (Molecular Devices) plate reader and fluorescence was monitored. […] Each 96 well plate contained cells transfected with one GPCR expression vector and each of the examined peptides was tested in triplicate.
as §4
The ability of Peptides to change calcium flux was examined in CHO-K1 cells co-transfected with FPRL1 and Gα16.
The P33-derived peptides (see FIG. 1): P33_V (SEQ ID NO:7), P33 (SEQ ID NO:6)-mono, P33 (SEQ ID NO:6)-dimer, P33—5 (SEQ ID NO:27), P33—8 (SEQ ID NO:14), P33—9 (SEQ ID NO:15) and P33—10 (SEQ ID NO:16) were tested for their ability to activate FPRL1 using the calcium flux assay in FPRL1-transfected CHO cells. […] The lack of activity of these peptides might be due to reduced potency; insufficient sensitivity of the experimental system, alternative interaction of the receptor, or activation of other pathways, which are not related to calcium flux. Thus, this interaction should be further characterized.

[1] = tested on: Zymosan-induced murine dorsal air pouch model; assay type: in vivo, mice; details: 4 h
Description: In order to analyze the ability of P58 to exert in vivo effects via the FPRL1 receptor, an acute experimental model of inflammation, the Zymosan-induced murine dorsal air pouch model, was used.
Male out-bred Swiss albino mice were purchased from Harlan, UK (T.O. strain) and maintained on a standard chow pellet diet with tap water ad libitum and a 12:00 h light /dark cycle. All animals were housed for 7 days prior to experimentation to allow body weight to reach ˜30 g on the day of the experiment.
Drugs were stored at −20° C. and defrosted on the day of the experiment. Peptide P58 was provided lyophilized; it was taken back to room temperature and dissolved with sterile PBS before use to make an initial 1 mg/ml solution. Peptide Ac2-26 (positive control) was also dissolved with sterile PBS before use to make an initial 1 mg/ml solution. Vehicle consisted of sterile pyrogen free PBS (Gibco, cat no. 14190-094). Once dissolved, P58 (SEQ ID NO:1) and Ac2-26 gave a clear solution. Drugs or vehicle were administered i.v. at a final volume of 200-μl, this volume containing the doses described below.
Lavage fluids were kept all the time on ice, then used to determine the number of migrated leukocytes, by taking an aliquot (100 μl) and diluting it 1:10 in Turk's solution (0.01% crystal violet in 3% acetic acid). The samples were then vortexed and 10 μl of the stained cell solution were placed in a Neubauer haematocymometer. Differential cell count was done using a light microscope (Olympus B061). In view of their chromatic characteristics and their nucleus and cytoplasm appearance, polymorphonuclear leukocytes (PMN; >95% neutrophils) could be easily identified.
For FACS analyses, an aliquot of lavage fluid was stained with the PE-conjugated anti-GR-1 monoclonal antibody (1:100 dilution, BD Biosciences; Cat 553128) to mark polymorphonuclear leukocytes. Staining was performed at 4° C.
Flow cytometry was performed using FACScan analyser (Becton Dickinson, Cowley, UK) with air-cooled 100 mW argon laser tuned to 488 nm connected to an Apple Macintosh G3 computer running Cell Quest II software. Forward and sidescatter characteristics were initially used to distinguish between the three distinct cell populations (lymphocytes, monocytes and granulocytes). Cells positive for GR-1 were detected in the FL2 channel (wavelength of 548 nm). Data are expressed as percentage of positive cells (in relation to the specific mAb). Determination of positive and negative populations was performed based on the control staining with irrelevant IgG isotype (rat IgG2b) labelled with PE. Once determined, quadrants were rigorously maintained for all analyses.
Data are shown for single mice, and also shown as mean±S.E. of (n) mice per group. Statistical differences were determined by ANOVA, plus Student Newman Keuls test. A P value <0.05 was taken as significant.
The anti-inflammatory activity of P58 shorter derivatives was tested in the same model of acute inflammation used in Example 6, the Zymosan-induced murine dorsal air pouch model.
Male out-bred Swiss albino mice were purchased from Harlan, UK (T.O. strain) and maintained on a standard chow pellet diet with tap water ad libitum and a 12:00 h light /dark cycle. All animals were housed for 7 days prior to experimentation to allow body weight to reach ˜25 g on the day of the experiment.
Drugs were stored at −20° C. and defrosted on the day of the experiment. Peptide P58 (SEQ ID NO:1) was provided lyophilized; it was taken back to room temperature and dissolved with sterile PBS before use to make an initial 1 mg/ml solution. Peptide P58-4 (SEQ ID NO:2) was provided lyophilized; it was taken back to room temperature and dissolved with sterile PBS before use to make an initial 327 μg/ml solution. Peptide P58-5 (SEQ ID NO:3) was provided lyophilized; it was taken back to room temperature and dissolved with sterile PBS before use to make an initial 476 μg/ml solution. […]

Substance	ability to induce calcium flux, relative potency (P33 family) (Mas receptor)	ability to induce calcium flux (P33 family) (FPRL1)	calcium flux (P58 family) (FPRL1)	further results
IYLNRKRRGDPAFKRRLRD (listed as Homo sapiens) [P61—4]				ability to induce calcium flux, relative potency (P61 family) (Mas receptor): somewhat weaker
SMCHRWSRAVLFPAAHRP [P33_mono] (listed as Homo sapiens) [Peptide P33_mono]	equally potent	similarly potent		
SMCHRWSRAVLFPAAHRP [P33_dimer] (also: disulfide dimer via cysteine; listed as Homo sapiens) [Peptide P33_dimer]	superior to the monomeric peptides			
TIPMFVPESTS (listed as Homo sapiens) [P58—6]			did not induce calcium flux	
Angiotensin 1-7 [Ang-(1-7), reference compound]				Ca response (Mas receptor; Mas dose response experiment, data not shown): did not induce Ca response
TIPMFVPESTSTLQKFTSWFM-amide (TIPMFVPESTSTLQKFTSWFM-NH2; listed as Homo sapiens) [P58—10]			elicited calcium flux	
FTSWFM-amide (FTSWFM-NH2; listed as Homo sapiens) [P58—4]			elicited calcium flux	inhibition of leukocyte accumulation triggered by zymosan A ([1]; Example 7, 20 nmole/mouse i.v.): 35%; inhibition of leukocyte accumulation triggered by zymosan A ([1]; Example 7, 80 nmole/mouse i.v.): 47%; inhibition of zymosan-induced neutrophil (GR-1+) accumulation ([1]; Example 7, 80 nmole/mouse i.v., FACS): 49%
TIPMFVPESTSTLQ (listed as Homo sapiens) [P58—12]			did not induce calcium flux	
HRWSRAVLFPAAHRP (listed as Homo sapiens) [P33—9]	induced calcium flux, albeit at a somewhat lower degree compared to P33_V	failed to induce calcium flux		
FAFLGYSIYLNRKRRGDPAF (listed as Homo sapiens) [P61—11S]				ability to induce calcium flux, relative potency (P61 family) (Mas receptor): as potent as P61_S
TIPMFVPESTSKLQ (listed as Homo sapiens) [P58—7]			did not induce calcium flux	
RWSRAVLFPAAHRP (listed as Homo sapiens) [P33—8]	induced calcium flux, albeit at a somewhat lower degree compared to P33_V	failed to induce calcium flux		
LQKFTSWFM-amide (LQKFTSWFM-NH2; listed as Homo sapiens) [P58—5]			elicited calcium flux	inhibition of leukocyte accumulation triggered by zymosan A ([1]; Example 7, 20 nmole/mouse i.v.): did not inhibit leukocyte migration; inhibition of zymosan-induced neutrophil (GR-1+) accumulation ([1]; Example 7, 20 nmole/mouse i.v., FACS): weak effect; inhibition of leukocyte accumulation triggered by zymosan A ([1]; Example 7, 80 nmole/mouse i.v.): 29%
AVLFPAAHRP (listed as Homo sapiens) [P33—5]		failed to induce calcium flux		
Ac2-26: a peptide derived from the N-terminus of AnnexinI, known FPRL1 agonist, positive control (AMVSEFLKQAWFIENEEQEYVQTVK) [reference compound]				inhibition of leukocyte accumulation triggered by zymosan A ([1]; Example 6, 200 μg/mouse i.v.): inhibited significantly; inhibition of neutrophil (GR-1+) accumulation triggered by zymosan A ([1]; Example 6, 200 μg/mouse i.v., FACS): 52%
WSRAVLFPAAHRP (listed as Homo sapiens) [P33—10]	induced calcium flux, albeit at a somewhat lower degree compared to P33_V	failed to induce calcium flux		
